{"source": "paper PMC526180", "about": "“Conservation and Evolution of Cis-Regulatory Systems in Ascomycete Fungi”", "binders": {"B1": {"name": "Sequence A (dsDNA)", "DNA 1": "GCGTGCCAGATAATCGGTGGCAAAACGGAAGAAAAAGTGA", "DNA 2": "TCACTTTTTCTTCCGTTTTGCCACCGATTATCTGGCACGC"}, "B2": {"name": "Sequence I (dsDNA)", "DNA 1": "ACTTGTTCCCGCTCGCTGGAGCTCCTCCAACGACACGGGC", "DNA 2": "GCCCGTGTCGTTGGAGGAGCTCCAGCGAGCGGGAACAAGT"}, "B3": {"name": "Sequence D competitor (dsDNA)", "DNA 1": "CCAGATAATCGGTGGCAAAACGGAAGAAAA", "DNA 2": "TTTTCTTCCGTTTTGCCACCGATTATCTGG"}, "B4": {"name": "Sequence G competitor (dsDNA)", "DNA 1": "CCAGATAATCCTGCATTTGGCGGAAGAAAA", "DNA 2": "TTTTCTTCCGCCAAATGCAGGATTATCTGG"}}, "settings_in_all_cases": "protein: recombinant; blunt", "key": {"Sc_Rpn4p [1]": {"target": "T1, Sc_Rpn4p (Saccharomyces cerevisiae S288C, UniProt Q03465 2-531)", "T1 sequence": "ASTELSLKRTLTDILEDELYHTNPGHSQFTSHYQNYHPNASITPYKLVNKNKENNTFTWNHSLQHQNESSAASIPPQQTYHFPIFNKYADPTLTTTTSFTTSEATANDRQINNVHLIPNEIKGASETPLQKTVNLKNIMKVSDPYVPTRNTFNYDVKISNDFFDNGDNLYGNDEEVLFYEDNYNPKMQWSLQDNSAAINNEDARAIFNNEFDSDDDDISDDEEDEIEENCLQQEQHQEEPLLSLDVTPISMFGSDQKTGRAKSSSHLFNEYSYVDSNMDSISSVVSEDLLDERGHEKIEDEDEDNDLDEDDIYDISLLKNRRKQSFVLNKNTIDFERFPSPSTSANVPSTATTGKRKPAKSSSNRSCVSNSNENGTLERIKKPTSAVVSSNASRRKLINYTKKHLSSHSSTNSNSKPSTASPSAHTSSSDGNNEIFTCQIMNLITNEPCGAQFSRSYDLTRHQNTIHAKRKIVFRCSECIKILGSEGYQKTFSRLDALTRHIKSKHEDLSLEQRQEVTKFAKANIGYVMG", "assay": "SPR; 50 nM protein; Biacore 3000 SA chip; HBS: 10 mM HEPES pH 7.4, 150 mM NaCl, 3 mM EDTA, 0.005% P20; room temperature; 10 ul/min, 90 s injection; competitors preincubated 50 min"}, "Sc_Rpn4p [2]": {"target": "T1, Sc_Rpn4p", "assay": "SPR; Biacore 3000 SA chip; HBS: 10 mM HEPES pH 7.4, 150 mM NaCl, 3 mM EDTA, 0.005% P20; room temperature; 10 ul/min, 90 s injection; competitors preincubated 50 min"}, "Sc_Rpn4p [3]": {"target": "T1, Sc_Rpn4p", "assay": "competition; SPR; 1x and 5x competitor; best competitor on Sequences A, B, C; Biacore 3000 SA chip; HBS: 10 mM HEPES pH 7.4, 150 mM NaCl, 3 mM EDTA, 0.005% P20; room temperature; 10 ul/min, 90 s injection; competitors preincubated 50 min"}, "Sc_Rpn4p [4]": {"target": "T1, Sc_Rpn4p", "assay": "competition; SPR; 1x and 5x competitor; Biacore 3000 SA chip; HBS: 10 mM HEPES pH 7.4, 150 mM NaCl, 3 mM EDTA, 0.005% P20; room temperature; 10 ul/min, 90 s injection; competitors preincubated 50 min"}}}
{"binder": "B1", "values": [{"measurement": "binding result", "setting": "Sc_Rpn4p [1]", "value": "binds"}]}
{"binder": "B2", "values": [{"measurement": "binding result", "setting": "Sc_Rpn4p [2]", "value": "no binding"}]}
{"binder": "B3", "values": [{"measurement": "binding result", "setting": "Sc_Rpn4p [3]", "value": "binds"}]}
{"binder": "B4", "values": [{"measurement": "binding result", "setting": "Sc_Rpn4p [4]", "value": "no binding"}]}
